Article PMC4514735, “The FKBP52 Cochaperone Acts in Synergy with β-Catenin to Potentiate Androgen Receptor Signaling” (PLoS ONE, 2015)

Target: T1, Gal4 DNA binding domain (DBD)-AR LBD chimeric protein (UniProt P10275 669-920)
T1 construct: also called Gal4-AR LBD; Gal4-DBD fused to the AR LBD; source: in cells (two-hybrid) and in lysate (co-IP)
T1 sequence (looked up): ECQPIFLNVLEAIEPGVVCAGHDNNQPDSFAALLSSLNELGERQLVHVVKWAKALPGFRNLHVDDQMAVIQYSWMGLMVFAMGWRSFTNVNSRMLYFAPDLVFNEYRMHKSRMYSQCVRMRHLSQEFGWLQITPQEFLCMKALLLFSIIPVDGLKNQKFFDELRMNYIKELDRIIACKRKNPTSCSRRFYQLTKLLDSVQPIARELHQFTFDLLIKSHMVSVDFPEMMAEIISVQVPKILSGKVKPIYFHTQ
Test: two-hybrid; mammalian two-hybrid in 293T cells, Gal4-tk-luc reporter, 10 nM DHT, with FKBP52 overexpressed
Settings: partners not purified

B1: VP16-AD fused to the full-length β-catenin (natural protein, UniProt P35222 1-781, looked up)
chain: MATQADLMELDMAMEPDRKAAVSHWQQQSYLDSGIHSGATTTAPSLSGKGNPEEEDVDTSQVLYEWEQGFSQSFTQEQVADIDGQYAMTRAQRVRAAMFPETLDEGMQIPSTQFDAAHPTNVQRLAEPSQMLKHAVVNLINYQDDAELATRAIPELTKLLNDEDQVVVNKAAVMVHQLSKKEASRHAIMRSPQMVSAIVRTMQNTNDVETARCTAGTLHNLSHHREGLLAIFKSGGIPALVKMLGSPVDSVLFYAITTLHNLLLHQEGAKMAVRLAGGLQKMVALLNKTNVKFLAITTDCLQILAYGNQESKLIILASGGPQALVNIMRTYTYEKLLWTTSRVLKVLSVCSSNKPAIVEAGGMQALGLHLTDPSQRLVQNCLWTLRNLSDAATKQEGMEGLLGTLVQLLGSDDINVVTCAAGILSNLTCNNYKNKMMVCQVGGIEALVRTVLRAGDREDITEPAICALRHLTSRHQEAEMAQNAVRLHYGLPVVVKLLHPPSHWPLIKATVGLIRNLALCPANHAPLREQGAIPRLVQLLVRAHQDTQRRTSMGGTQQQFVEGVRMEEIVEGCTGALHILARDVHNRIVIRGLNTIPLFVQLLYSPIENIQRVAAGVLCELAQDKEAAEAIEAEGATAPLTELLHSRNEGVATYAAAVLFRMSEDKPQDYKKRLSVELTSSLFRTEPMAWNETADLGLDIGAQGEPLGYRQDDPSYRSFHSGGYGQDALGMDPMMEHEMGGHHPGADYPVDGLPDLGHAQDLMDGLPPGDSNQLAWFDTDL
notes: β-catenin, full length; NheI-XbaI fragment of pCI-neo-β-catenin inserted into the pACT vector (Promega); also called Vp16-β-catenin; VP16-β-catenin
B1 was tested, and the “fold enhancement of the two-hybrid signal by overexpressed FKBP52” value was 4.5 fold.
